Data from US20140322307A1 (LIPOTEC S A, published 2014).

T1: Proteinase-Activated Receptor-2 (human, on human keratinocytes) (human, UniProt P55085 37-397)
T1 sequence (looked up): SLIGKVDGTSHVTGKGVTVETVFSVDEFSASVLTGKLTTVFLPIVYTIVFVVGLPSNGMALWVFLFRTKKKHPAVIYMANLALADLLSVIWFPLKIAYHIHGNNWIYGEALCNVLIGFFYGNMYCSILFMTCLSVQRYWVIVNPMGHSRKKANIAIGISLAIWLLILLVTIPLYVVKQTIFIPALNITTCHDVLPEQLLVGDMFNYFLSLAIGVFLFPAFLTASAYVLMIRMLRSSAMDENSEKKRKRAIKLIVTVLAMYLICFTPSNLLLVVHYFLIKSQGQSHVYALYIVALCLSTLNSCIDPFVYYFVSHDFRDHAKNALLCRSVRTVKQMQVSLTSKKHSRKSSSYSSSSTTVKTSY

T2: Proteinase-Activated Receptor-2 (rat, on rat DRG neurons) (rat, UniProt Q63645 37-397)
T2 sequence (looked up): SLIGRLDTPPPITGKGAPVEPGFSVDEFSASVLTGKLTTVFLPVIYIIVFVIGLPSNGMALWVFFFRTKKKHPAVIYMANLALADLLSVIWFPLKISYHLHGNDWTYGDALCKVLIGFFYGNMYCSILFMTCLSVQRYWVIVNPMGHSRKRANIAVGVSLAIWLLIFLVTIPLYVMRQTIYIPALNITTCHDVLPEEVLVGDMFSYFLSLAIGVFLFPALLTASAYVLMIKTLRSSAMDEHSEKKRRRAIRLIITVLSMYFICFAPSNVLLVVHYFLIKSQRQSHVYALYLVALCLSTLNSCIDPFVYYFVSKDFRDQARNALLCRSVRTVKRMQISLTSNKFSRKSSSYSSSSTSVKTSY

B1: Ac-L-Phe-L-Phe-L-Trp-L-Asp-L-Ile-L-Val-NH2 (peptide)
peptide: Ac-FFWDIV-NH2
B2: Ac-L-Ser-L-Phe-L-Trp-L-Phe-L-Ile-L-Ser-NH2 (peptide)
peptide: Ac-SFWFIS-NH2
B3: Ac-L-Phe-L-Met-L-Trp-L-Asp-L-Ile-L-Val-NH2 (peptide)
peptide: Ac-FMWDIV-NH2
B4: Ac-L-Phe-L-Phe-L-Trp-L-Asp-L-His-L-Val-NH2 (peptide)
peptide: Ac-FFWDHV-NH2
B5: Ac-L-Ser-L-Met-L-Arg-L-Phe-L-Ile-L-Val-NH2 (peptide)
peptide: Ac-SMRFIV-NH2
B6: Ac-L-Ser-L-Phe-L-Arg-L-Phe-L-Ile-L-Val-NH2 (peptide)
peptide: Ac-SFRFIV-NH2
B7: Ac-L-Phe-L-Phe-L-Arg-L-Asp-L-His-L-Val-NH2 (peptide)
peptide: Ac-FFRDHV-NH2
B8: Ac-L-Ser-L-Met-L-Trp-L-Phe-L-Ile-L-Val-NH2 (peptide)
peptide: Ac-SMWFIV-NH2
B9: Ac-L-Phe-L-Phe-L-Gln-L-Phe-L-Ile-L-Val-NH2 (peptide)
peptide: Ac-FFQFIV-NH2
B10: Ac-L-Phe-L-Phe-L-Gln-L-Asp-L-Ile-L-Val-NH2 (peptide)
peptide: Ac-FFQDIV-NH2
B11: Ac-L-Phe-L-Met-L-Trp-L-Phe-L-Ile-L-Val-NH2 (peptide)
peptide: Ac-FMWFIV-NH2
B12: Ac-L-Ser-L-Phe-L-Gln-L-Phe-L-His-L-Ser-NH2 (peptide)
peptide: Ac-SFQFHS-NH2
B13: Ac-L-Phe-L-Phe-L-Trp-L-Phe-L-His-L-Val-NH2 (peptide)
peptide: Ac-FFWFHV-NH2
B14: Ac-L-Phe-L-Met-L-Arg-L-Phe-L-Ile-L-Val-NH2 (peptide)
peptide: Ac-FMRFIV-NH2
B15: Ac-L-Ser-L-Phe-L-Trp-L-Phe-L-His-L-Val-NH2 (peptide)
peptide: Ac-SFWFHV-NH2
B16: Ac-L-Phe-L-Phe-L-Arg-L-Phe-L-Ile-L-Val-NH2 (peptide)
peptide: Ac-FFRFIV-NH2
B17: Ac-L-Phe-L-Phe-L-Gln-L-Phe-L-His-L-Val-NH2 (peptide)
peptide: Ac-FFQFHV-NH2
B18: Ac-L-Ser-L-Met-L-Gln-L-Phe-L-His-L-Val-NH2 (peptide)
peptide: Ac-SMQFHV-NH2
B19: Ac-L-Phe-L-Phe-L-Arg-L-Phe-L-His-L-Val-NH2 (peptide)
peptide: Ac-FFRFHV-NH2
B20: Ac-L-Phe-L-Met-L-Arg-L-Phe-L-His-L-Val-NH2 (peptide)
peptide: Ac-FMRFHV-NH2
B21: Ac-L-Phe-L-Met-L-Gln-L-Asp-L-Ile-L-Val-NH2 (peptide)
peptide: Ac-FMQDIV-NH2
B22: Ac-L-Phe-L-Phe-L-Gln-L-Phe-L-His-L-Ser-NH2 (peptide)
peptide: Ac-FFQFHS-NH2
B23: Ac-L-Ser-L-Met-L-Trp-L-Phe-L-His-L-Val-NH2 (peptide)
peptide: Ac-SMWFHV-NH2
B24: Ac-L-Phe-L-Met-L-Gln-L-Phe-L-His-L-Val-NH2 (peptide)
peptide: Ac-FMQFHV-NH2
B25: Ac-L-Phe-L-Met-L-Trp-L-Phe-L-His-L-Val-NH2 (peptide)
peptide: Ac-FMWFHV-NH2
B26: Ac-L-Phe-L-Met-L-Gln-L-Phe-L-Ile-L-Val-NH2 (peptide)
peptide: Ac-FMQFIV-NH2
B27: Ac-L-Phe-L-Phe-L-Trp-L-Phe-L-Ile-L-Val-NH2 (peptide)
peptide: Ac-FFWFIV-NH2
B28: Ac-L-Phe-L-Phe-L-Arg-L-Asp-L-Ile-L-Val-NH2 (peptide)
peptide: Ac-FFRDIV-NH2
B29: Ac-L-Ser-L-Met-L-Gln-L-Phe-L-Ile-L-Val-NH2 (peptide)
peptide: Ac-SMQFIV-NH2
B30: Ac-L-Ser-L-Phe-L-Gln-L-Phe-L-Ile-L-Val-NH2 (peptide)
peptide: Ac-SFQFIV-NH2

The binders below were run against T1, Proteinase-Activated Receptor-2 (human, …) (assay: cell-based or functional assay).

Inhibition PAR-2 activity (calcium fluorescence, human keratinocytes, peptide at 1 mg/mL) | PAR-2 activity (calcium fluorescence, human keratinocytes, peptide at 1 mg/mL) | Binder
67.4% | 32.6% | B1
39.2% | 60.8% | B2
86.1% | 13.9% | B3
14.8% | 85.2% | B4
75.2% | 24.8% | B5
58.9% | 41.1% | B6
60.3% | 39.7% | B7
43.3% | 56.7% | B8
24.1% | 75.9% | B9
35.9% | 64.1% | B10
20.7% | 79.3% | B11
9.9% | 90.1% | B12
67.8% | 32.2% | B13
40.9% | 59.1% | B14
58.3% | 41.7% | B15
53.7% | 46.3% | B16
19.9% | 80.1% | B17
15.1% | 84.9% | B18
23.4% | 76.6% | B19
40% | 60% | B20
9.7% | 90.3% | B21
37.4% | 62.6% | B22
13.5% | 86.5% | B23
22.6% | 77.5% | B24
76.5% | 23.5% | B25
28.6% | 71.4% | B26
13.9% | 86.1% | B27
39% | 61% | B28
23.4% | 76.7% | B29
26.2% | 73.8% | B30

Each binder was assayed against T2, Proteinase-Activated Receptor-2 (rat, …) (assay: cell-based or functional assay).

% CGRP (release from rat DRG neurons after PAR-2 agonist I and capsaicin; peptide at 25 µg/mL) | % CGRP (release from rat DRG neurons after PAR-2 agonist I and capsaicin; peptide at 0.5 mg/mL) | Binder
78.7% | 20.3% | B1
58.9% | 17.7% | B13
70.1% | 20.2% | B25
